Measurements taken from patent US20190041402A1 (GOVERNING COUNCIL OF THE UNIVERSITY OF TORONTO, published 2019).

Columns and labels:
rat αKlotho (endogenous) = biological target: T1, rat αKlotho (endogenous) (rat, UniProt Q9Z2Y9 35-983); test: immunoprecipitation-immunoblot, serum and urine; native soluble αKlotho in rat serum; immunoprecipitation-immunoblot
T1 sequence (looked up): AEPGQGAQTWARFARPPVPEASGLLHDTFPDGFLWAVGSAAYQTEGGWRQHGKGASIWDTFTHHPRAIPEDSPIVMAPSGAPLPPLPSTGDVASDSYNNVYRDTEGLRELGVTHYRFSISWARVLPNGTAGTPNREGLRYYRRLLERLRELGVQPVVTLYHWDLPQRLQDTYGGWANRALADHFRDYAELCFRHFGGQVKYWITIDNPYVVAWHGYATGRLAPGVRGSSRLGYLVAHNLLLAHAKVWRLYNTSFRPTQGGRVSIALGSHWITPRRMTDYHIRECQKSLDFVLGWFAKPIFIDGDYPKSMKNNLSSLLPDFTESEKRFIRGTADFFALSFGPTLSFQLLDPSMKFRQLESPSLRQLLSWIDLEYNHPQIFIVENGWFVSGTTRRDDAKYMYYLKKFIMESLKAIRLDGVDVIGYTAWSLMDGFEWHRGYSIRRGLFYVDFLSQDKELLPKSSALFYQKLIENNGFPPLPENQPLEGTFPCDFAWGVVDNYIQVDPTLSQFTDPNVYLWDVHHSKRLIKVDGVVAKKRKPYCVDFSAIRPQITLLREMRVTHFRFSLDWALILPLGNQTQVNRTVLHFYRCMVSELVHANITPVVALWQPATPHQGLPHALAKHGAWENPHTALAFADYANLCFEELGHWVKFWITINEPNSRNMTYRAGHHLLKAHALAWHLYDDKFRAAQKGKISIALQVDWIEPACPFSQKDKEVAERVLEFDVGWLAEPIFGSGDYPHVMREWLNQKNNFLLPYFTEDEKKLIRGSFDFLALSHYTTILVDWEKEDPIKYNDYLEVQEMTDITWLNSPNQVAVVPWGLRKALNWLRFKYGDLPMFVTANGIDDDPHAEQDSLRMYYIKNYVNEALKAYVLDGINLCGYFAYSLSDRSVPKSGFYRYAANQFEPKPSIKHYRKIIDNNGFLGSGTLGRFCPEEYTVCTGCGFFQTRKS
Procedure: The ELISA was performed as instructed by the manufacturer (Immuno-Biological Laboratory, Japan). For the IP-IB assay, typically 50 μl of serum or urine were diluted with KRH buffer [25 mM Hepes-NaOH (pH 7.4), 120 mM NaCl, 5 mM KCl, 1.2 mM MgSO4, 1.3 mM CaCl2, 1.3 mM KH2PO4] to a final volume of 0.5 ml incubated with 2 μg of sb106-Fab overnight at 4° C. in low binding, siliconized tubes. Sepharose beads (50 μL) conjugated with anti-FLAG antibody (50% v/v) prewashed 3× with KRH buffer were added, incubated (4° C.×2 h), and washed (KRH-500 μl per tube ×3; 22° C.). The immune complex was eluted with 2×SDS sample loading buffer (50 μl; 100° C.×3 min; 4° C.×3 min; spun), and fractionated by SDS-PAGE, transferred to nitrocellulose membranes and blotted with anti-KL1 antibody (KM2076, 1:4000 or 3.1 mg/mL, 1:10000 dilution) and diluent (Dako#S3022, Carpinteria, Calif., USA) overnight (4° C., rocker). The membrane was washed (×3, Tris-buffered saline with 0.1% Tween; TBS-T), exposed to anti-rat IgG2A (LSBio cat#LS-059051, 1:20000 in 5% milk/2% goat serum/TBS-T×1 h) and washed (×3 TBS-T). For chemiluminescence, the membrane was covered with SuperSignal West Femto Maximum Sensitivity substrate (Thermo Scientific, Rockford, Ill., USA) and exposed for 30-90 s. The 130-kD bands were scanned, and density was compared with internal control samples of know amount of Klotho using Adobe Photoshop CS4.

[1] = biological target: T2, soluble human αKlotho (recombinant) (human, UniProt Q9UEF7 34-981); test: SPR (ProteOn XPR36), Fab captured by anti-IgG(H+L), human αKlotho injected in serial dilutions, Langmuir fit [continued) B.]
T2 construct: also called Hu aKL; recombinant human αKlotho
T2 sequence (looked up): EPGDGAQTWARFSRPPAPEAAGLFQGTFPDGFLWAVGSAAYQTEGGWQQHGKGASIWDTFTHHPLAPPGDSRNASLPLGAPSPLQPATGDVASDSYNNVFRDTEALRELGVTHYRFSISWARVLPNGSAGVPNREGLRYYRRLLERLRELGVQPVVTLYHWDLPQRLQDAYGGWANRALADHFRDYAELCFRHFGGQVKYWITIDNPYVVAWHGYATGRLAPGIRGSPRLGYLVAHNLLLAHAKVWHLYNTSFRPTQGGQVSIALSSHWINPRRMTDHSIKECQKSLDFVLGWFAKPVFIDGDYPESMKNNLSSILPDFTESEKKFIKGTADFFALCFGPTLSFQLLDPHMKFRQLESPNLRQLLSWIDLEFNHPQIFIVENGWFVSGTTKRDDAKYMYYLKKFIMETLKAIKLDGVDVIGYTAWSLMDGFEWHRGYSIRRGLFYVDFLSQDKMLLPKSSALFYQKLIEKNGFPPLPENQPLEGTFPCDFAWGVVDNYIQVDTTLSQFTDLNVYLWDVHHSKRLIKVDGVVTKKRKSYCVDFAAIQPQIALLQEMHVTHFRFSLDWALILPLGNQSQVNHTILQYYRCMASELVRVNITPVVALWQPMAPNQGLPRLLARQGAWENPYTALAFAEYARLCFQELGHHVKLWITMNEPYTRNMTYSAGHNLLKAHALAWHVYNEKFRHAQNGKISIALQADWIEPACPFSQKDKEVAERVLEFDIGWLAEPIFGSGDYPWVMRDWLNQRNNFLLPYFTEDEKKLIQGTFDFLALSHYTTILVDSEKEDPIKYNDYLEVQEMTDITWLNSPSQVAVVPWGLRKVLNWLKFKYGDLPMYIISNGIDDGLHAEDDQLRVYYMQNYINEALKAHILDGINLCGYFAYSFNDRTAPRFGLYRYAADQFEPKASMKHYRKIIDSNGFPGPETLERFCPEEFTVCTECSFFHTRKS
Procedure: Estimated affinities against human and mouse antigen for select αKlotho Fabs were obtained by surface plasmon resonance on a ProteOn XPR36 (FIG. 17). Fabs were captured using an anti-IgG(H+L) antibody and serial dilutions of αKlotho were injected. Binding curves were fitted to the Langmuir model. (A) Determined Kon, Koff and KD values. (B) and (C) Binding curves for human and mouse antigen respectively.

B1: sb106 Fab (Fab, V domains shown)
VH: EVQLVESGGGLVQPGGSLRLSCAASGFNISYYSIHWVRQAPGKGLEWVAYISPSYGYTSYADSVKGRFTISADTSKNTAYLQMNSLRAEDTAVYYCARYYVYASHGWAGYGMDYWGQGTLVTVSS
VL: DIQMTQSPSSLSASVGDRVTITCRASQSVSSAVAWYQQKPGKAPKLLIYSASSLYSGVPSRFSGSRSGTDFTLTISSLQPEDFATYYCQQAGYSPITFGQGTKVEIKR
notes: also called Fsb106; clone 48
Rat αKlotho (endogenous)
  binding result: binds
[1]
  Kd: 1.02 nM
  koff: 0.000315 s⁻¹
  kon: 308000 M⁻¹ s⁻¹
